Here are results for 13 molecules from patent publication US20100092464A1 (Novartis, published 2010).

Numbering of substitutions follows the chain as printed.

Sequences and labels used below:
T1: human macrophage colony stimulating factor (M-CSF) (human, UniProt P09603 33-190, limits assumed)
T1 sequence: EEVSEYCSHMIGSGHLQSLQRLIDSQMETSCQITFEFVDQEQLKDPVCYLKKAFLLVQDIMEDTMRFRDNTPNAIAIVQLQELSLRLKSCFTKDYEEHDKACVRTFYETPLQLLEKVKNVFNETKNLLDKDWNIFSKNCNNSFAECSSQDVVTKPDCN

B1: M-CSF-specific murine monoclonal antibody RX1 (antibody, V domains shown)
VH: DVQLQESGPGLVKPSQSLSLTCTVTDYSITSDYAWNWIRQFPGNKLEWMGYISYSGSTSYNPSLKSRISITRDTSKNQFFLQLNSVTTEDTATYYCASFDYAHAMDYWGQGTSVTVSS
VL: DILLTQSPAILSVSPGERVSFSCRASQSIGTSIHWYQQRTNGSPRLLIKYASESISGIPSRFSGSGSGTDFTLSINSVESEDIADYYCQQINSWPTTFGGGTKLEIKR
notes: Hybridoma-derived and recombinant murine RX1 are written as one molecule; also called Murine RX1; rRX1(mouse)
B2: Human Engineered RX1 antibody heRX1-1.G2 (antibody, V domains shown)
VH: B1 VH with S17T, N44K, S69T, T71S, F80S, T88A, E89A, S113T
VL: EIVLTQSPGTLSVSPGERVTFSCRASQSIGTSIHWYQQKTGQSPRLLIKYASERISGIPDRFSGSGSGTDFTLTISRVESEDFADYYCQQINSWPTTFGQGTKLEIKR
B3: Human Engineered RX1 antibody heRX1-1.G1 (antibody, V domains shown)
VH: B1 VH with S17T, N44K, S69T, T71S, F80S, T88A, E89A, S113T
VL: B2 VL
B4: Human Engineered RX1 antibody heRX1-1.G4 (antibody, V domains shown)
VH: B1 VH with S17T, N44K, S69T, T71S, F80S, T88A, E89A, S113T
VL: B2 VL
B5: Human Engineered RX1 antibody heRX1-10.G2 (antibody, V domains shown)
VH: QVQLQESGPGLVKPSQTLSLTCTVSDYSITSDYAWNWIRQFPGKGLEWMGYISYSGSTSYNPSLKSRITISRDTSKNQFSLQLNSVTAADTAVYYCASFDYAHAMDYWGQGTTVTVSS
VL: DIVLTQSPAFLSVTPGEKVTFTCQASQSIGTSIHWYQQKTDQAPKLLIKYASESISGIPSRFSGSGSGTDFTLTISSVEAEDAADYYCQQINSWPTTFGGGTKLEIKR
notes: Human Gamma-2 / Kappa constant regions
B6: Human Engineered RX1 antibody heRX1-2.G2 (antibody, V domains shown)
VH: B5 VH
VL: B2 VL
B7: Human Engineered RX1 antibody heRX1-3.G2 (antibody, V domains shown)
VH: B5 VH with Q1D, S25T, G45K, V93T
VL: B2 VL with S43A, I55A, S56T
B8: Human Engineered RX1 antibody heRX1-5.G2 (antibody, V domains shown)
VH: B5 VH with Q1D, S25T, G45K, V93T
VL: B2 VL with R54S
B9: Human Engineered RX1 antibody heRX1-8.G2 (antibody, V domains shown)
VH: B5 VH
VL: B2 VL with S43A, R54S
B10: Human Engineered RX1 antibody heRX1-7.G2 (antibody, V domains shown)
VH: B5 VH with Q1D, S25T, G45K, V93T
VL: B2 VL with S43A, R54S
B11: Human Engineered RX1 antibody heRX1-4.G2 (antibody, V domains shown)
VH: B5 VH
VL: B2 VL with S43A, I55A, S56T
B12: Human Engineered RX1 antibody heRX1-9.G2 (antibody, V domains shown)
VH: B5 VH with Q1D, S25T, G45K, V93T
VL: B5 VL
notes: as for B5
B13: Fab fragment of recombinant murine RX1 (Fab, V domains shown)
VH: B1 VH
VL: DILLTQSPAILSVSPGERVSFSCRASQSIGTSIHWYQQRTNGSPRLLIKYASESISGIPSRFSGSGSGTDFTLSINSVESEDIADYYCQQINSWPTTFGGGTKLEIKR

The target in the first experiment is T1, human macrophage colony stimulating …. The experiment is described as follows: cell-based or functional assay.
With B1, the “EC50 (M-CSF neutralisation)” value amounted to 0.002 µg/mL.

A further experiment shares this target. The experiment is described as follows: cell-based or functional assay. The source holds these as a separate data set.
Turning to B2, the “IC50 (read off the curve)” value was roughly 0.02 µg/mL. The same measure, in the same setting: the result for B1 reads roughly 0.01 µg/mL; that for B3, roughly 0.01 µg/mL.

B4: the “IC50 (read off the curve)” value is roughly 0.01 µg/mL.

The target is the same in another experiment. The experiment is described as follows: cell-based or functional assay. This is another data set of the same source.
With B2, the “IC50 (read off the curve)” value was roughly 0.03 µg/mL. Still for that read-out and setting: as for B1, the figure is roughly 0.02 µg/mL. On the same count and under the same terms, the result for B3 reads roughly 0.02 µg/mL; that for B4, roughly 0.02 µg/mL.

The target is the same in a further experiment. The experiment is described as follows: cell-based or functional assay. This is another data set of the same source.
On to B2, for which the “IC50 Fold Loss (M-NFS-60 cell proliferation)” value (shortened to “IC50 Fold Loss”) was 2.8 fold. Still for that read-out and setting: the result for B5 reads 2.2 fold; that for B6, 3.1 fold; that for B7, 5.3 fold. Turning to B8, the “IC50 Fold Loss” value was 6.5 fold. Same read-out and setting: the result for B9 reads 5.9 fold; that for B10, 6.1 fold. Same read-out and setting: the result for B11 reads 4.6 fold. Take B12: the “IC50 Fold Loss” value came to 3.6 fold.

The target is the same in another experiment. The experiment is described as follows: M-CSF and antibody mixed at equal molar ratios; size exclusion chromatography or light scattering. An excerpt: The antigen-antibody complexes that the various Human Engineered™ RX1 antibodies formed with MCSF were studied by combining M-CSF and antibody in buffer at equal molar ratios, followed by analysis of the size of the antigen-antibody complex using size exclusion chromatography or light scattering. […] The heRX1-9.G2 or 1-10.G2 antibodies appeared to form 2:1 or 2:2 complexes with MCSF of about 400 kDa. The heRX1-1.G2 appeared to form large lattice aggregates with MCSF of greater than 2×10⁶ Da. The IgG1 and IgG4 constructs formed small complexes similar to that of murine parent RX1.
On to B1, for which the “size of antigen-antibody complex” value was roughly 200 kDa. In the case of B5, the “size of antigen-antibody complex” value was roughly 400 kDa. Still for that read-out and setting: the result for B12 reads roughly 400 kDa.

A further experiment shares this target. The experiment is described as follows: cell-based or functional assay. This is another data set of the same source.
For the molecule B1, the “IC50 (read off the curve)” value is roughly 0.02 µg/mL. In the case of B13, the “IC50 (read off the curve)” value is roughly 2 µg/mL.
